The target in this assay is hGIPR (human) (UniProt P48546). Briefly: cell-based or functional assay.
Chain of hGIPR (human) (P48546 22-466): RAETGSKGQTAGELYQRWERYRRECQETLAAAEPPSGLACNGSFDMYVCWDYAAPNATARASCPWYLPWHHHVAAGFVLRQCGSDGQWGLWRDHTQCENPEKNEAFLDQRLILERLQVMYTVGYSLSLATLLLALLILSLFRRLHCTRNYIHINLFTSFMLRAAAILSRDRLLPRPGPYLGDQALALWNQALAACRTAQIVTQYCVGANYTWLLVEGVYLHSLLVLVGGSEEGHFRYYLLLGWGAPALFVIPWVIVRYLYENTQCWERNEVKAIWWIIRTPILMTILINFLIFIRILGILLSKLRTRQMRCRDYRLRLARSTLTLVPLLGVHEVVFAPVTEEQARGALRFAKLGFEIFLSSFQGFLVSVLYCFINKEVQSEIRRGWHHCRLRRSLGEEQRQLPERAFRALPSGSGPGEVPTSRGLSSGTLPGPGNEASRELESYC

“hGIP (from UniProt P09681 52-93) (peptide)” displayed a pEC50, cAMP accumulation (pEC50 (-log M)) of 11.8.

Source of the values: patent US20240228572A1, “LONG ACTING GLUCAGON RECEPTOR SELECTIVE PEPTIDES AND METHODS OF USE” (i2o Therapeutics, Inc., priority 2020, published 2024).
